Experimental findings from patent US10875904B2 are described below.

The test deals with ovalbumin peptide SIINFEKL presented on mouse MHC Class I H-2Kb on OP9-DL1 cells (mouse) (UniProt P01901). Description: cell-based or functional assay.
Sequence of UniProt P01901 (P01901 22-369): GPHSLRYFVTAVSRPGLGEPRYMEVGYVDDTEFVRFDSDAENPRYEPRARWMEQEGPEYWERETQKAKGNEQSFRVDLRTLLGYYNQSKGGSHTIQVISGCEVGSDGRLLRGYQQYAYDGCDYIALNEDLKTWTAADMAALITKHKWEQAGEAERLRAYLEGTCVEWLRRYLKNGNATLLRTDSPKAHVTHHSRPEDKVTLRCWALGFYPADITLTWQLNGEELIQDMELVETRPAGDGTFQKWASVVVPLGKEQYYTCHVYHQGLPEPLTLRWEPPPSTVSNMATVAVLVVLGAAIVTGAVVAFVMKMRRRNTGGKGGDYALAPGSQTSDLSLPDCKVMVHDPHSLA

For the substance “OT-1 transgenic TCR (specific for ovalbumin peptide SIINFEKL presented on H-2Kb)”, the development or survival of double positive (DP) T cells from OT-1 progenitors in OP9-DL1 culture, flow cytometry is > 0.01 µM.
